Square brackets hold non-standard residues; d marks the D form. Ends that are not written are not given here. Cit = NC(=O)NCCC[C@H](N)C(=O)O
What was measured:
[1] = target: T1, QP1073, citrullinated vimentin peptide fragment VCitFLEQQNK (SEQ ID NO: 842), state with N-terminal …; assay: single-molecule on-chip dynamic sequencing; bin ratio v. pulse duration clusters
T1 construct: residue range inferred
T1 peptide: [Cit]FLEQQNK
Experimental: (§1) Sequencing reactions using the recognizers PS610 (FYW), PS1220 (R), and PS1223 (LIV) were performed separately for the QP706 and QP1073 peptide fragments. Each recognizer was labeled with a unique dye and/or unique number of dyes. A scatter plot of bin ratio v. pulse duration is shown for the QP706 peptide fragment in FIG. 18A and for the QP1073 peptide fragment in FIG. 18B. In the plot of FIG. 18A, three clusters corresponding to FLE, LEQ, and RFL segments are visible. […] In the plot of FIG. 18B, two clusters corresponding to FLE and LEQ segments are visible, but there is no cluster corresponding to RFL.

[2] = target: T2, QP706, vimentin peptide fragment … (SEQ ID NO: 841), state with N-terminal arginine (RFLEQQNK); assay: single-molecule on-chip sequencing of QP706 with PS610, PS1220 and PS1223; RFL cluster in bin ratio v. pulse duration plot
T2 construct: residue range inferred from the printed segment
T2 peptide: RFLEQQNK
Experimental: as §1

[3] = target: T3, QP707, … (SEQ ID NO: 817), state with N-terminal arginine (RLAFAYPDDDK); assay: single-molecule on-chip sequencing with PS621, PS610 and PS961; average of 10 sequencing reactions
T3 construct: residue range inferred from the recognized N-terminal residue; also called R-X peptide, X = L
T3 peptide: RLAFAYPDDDK

[4] = target: T4, QP746, … (SEQ ID NO: 913), state with N-terminal arginine; assay: as above
T4 construct: State after aminopeptidase cleavage of the N-terminal leucine; residue range inferred; also called R-X peptide, X = Y
T4 peptide: RYAFAYPDDDK

[5] = target: T5, QP749, … (SEQ ID NO: 911), state with N-terminal arginine; assay: as above
T5 construct: State after aminopeptidase cleavage of the N-terminal leucine; residue range inferred; also called R-X peptide, X = I
T5 peptide: RIAFAYPDDDK

[6] = target: T6, QP938, … (SEQ ID NO: 919), state with N-terminal arginine; assay: as above
T6 construct: State after aminopeptidase cleavage of the N-terminal leucine; residue range inferred; also called R-X peptide, X = E
T6 peptide: REAFAYPDDDK

[7] = target: T7, QP942, … (SEQ ID NO: 921), state with N-terminal arginine; assay: as above
T7 construct: State after aminopeptidase cleavage of the N-terminal leucine; residue range inferred; also called R-X peptide, X = T
T7 peptide: RTAFAYPDDDK

[8] = target: T8, QP748, … (SEQ ID NO: 915), state with N-terminal arginine; assay: as above
T8 construct: State after aminopeptidase cleavage of the N-terminal leucine; residue range inferred; also called R-X peptide, X = S
T8 peptide: RSAFAYPDDDK

[9] = target: T9, QP747, … (SEQ ID NO: 917), state with N-terminal arginine; assay: as above
T9 construct: State after aminopeptidase cleavage of the N-terminal leucine; residue range inferred; also called R-X peptide, X = A
T9 peptide: RAAFAYPDDDK

[10] = target: T10, QP941, … (SEQ ID NO: 923), state with N-terminal arginine; assay: as above
T10 construct: State after aminopeptidase cleavage of the N-terminal leucine; residue range inferred; also called R-X peptide, X = Q
T10 peptide: RQAFAYPDDDK

[11] = target: T11, QP943, … (SEQ ID NO: 925), state with N-terminal arginine; assay: as above
T11 construct: State after aminopeptidase cleavage of the N-terminal leucine; residue range inferred; also called R-X peptide, X = V
T11 peptide: RVAFAYPDDDK

[12] = target: T12, QP789, LCitLAFAYPDDDK (SEQ ID NO: 839), state with N-terminal citrulline (CitLAFAYPDDDK); assay: single-molecule on-chip dynamic sequencing
T12 construct: residue range inferred
T12 peptide: [Cit]LAFAYPDDDK

[13] = target: T13, … (SEQ ID NO: 836), state with N-terminal SDMA (human, symmetric dimethylarginine (SDMA) at position 2 of SEQ ID NO: 836 (N-terminal residue of this state); conjugated C-terminally to a macromolecular linker); assay: single-molecule on-chip dynamic sequencing
T13 construct: residue range inferred

[14] = target: T3, QP707, … (SEQ ID NO: 817), state with …; assay: cell-based or functional assay
[15] = target: T4, QP746, … (SEQ ID NO: 913), state with …; assay: cell-based or functional assay
[16] = target: T5, QP749, … (SEQ ID NO: 911), state with …; assay: cell-based or functional assay
[17] = target: T11, QP943, … (SEQ ID NO: 925), state with …; assay: cell-based or functional assay
[18] = target: T14, QP789, LCitLAFAYPDDDK (SEQ ID NO: 839) (also: C-terminal azidolysine (general statement for all synthetic peptides)); assay: single-molecule on-chip sequencing; recognition of the N-terminal amino acid
T14 construct: Intact peptide, N-terminal leucine
T14 peptide: L[Cit]LAFAYPDDDK-NH2
Experimental: (§2) In this example, sequencing reactions were conducted for 4 pairs of unmodified and citrullinated peptides: QP1028 & QP1029, QP1030 & QP1031, QP1032 & QP1033, and QP707 & QP789. […] For the QP1028 & QP1029 and QP1030 & QP1031 pairs, sequencing reactions were conducted using the PS610 (FYW) recognizer. For the QP1032 & QP1033 and QP707 & QP789 pairs, sequencing reactions were conducted using the PS1223 (LIV) recognizer.

[19] = target: T15, QP1032, IRLAFAYPDDDK (SEQ ID NO: 849); assay: as above
T15 peptide: IRLAFAYPDDDK
Experimental: as §2

[20] = target: T16, QP1033, ICitLAFAYPDDDK (SEQ ID NO: 850) (also: C-terminal azidolysine (general statement for all synthetic peptides)); assay: as above
T16 peptide: I[Cit]LAFAYPDDDK-NH2
Experimental: as §2

[21] = target: T17, QP707, LRLAFAYPDDDK (SEQ ID NO: 817) (not fully specified (C-terminus); also: surface-immobilized through C-terminal linker); assay: as above
T17 construct: Intact peptide, N-terminal leucine; surface-immobilized through a C-terminal linker
T17 peptide: LRLAFAYPDDDK
Experimental: as §2

[22] = target: T18, QP706, vimentin peptide fragment … (SEQ ID NO: 841), state with N-terminal leucine (LEQQNK); assay: single-molecule on-chip sequencing of QP706 with PS610, PS1220 and PS1223; LEQ cluster in bin ratio v. pulse duration plot
T18 construct: residue range inferred from the printed segment
T18 peptide: LEQQNK
Experimental: as §1

[23] = target: T19, QP1073, citrullinated vimentin peptide fragment VCitFLEQQNK (SEQ ID NO: 842), state with N-terminal leucine …; assay: single-molecule on-chip sequencing of QP1073 with PS610, PS1220 and PS1223; bin ratio v. pulse duration plot
T19 construct: State after aminopeptidase cleavage
T19 peptide: LEQQNK
Experimental: as §1

B1: PS1220 (designed binder)
chain: MHSKFSHAGRICGAKFKVGEPIYRCKECSFDDTCVLCVNCFNPKDHLGHHVYTTICTEFNNGECDCGDKTAWNHTLFCKAEEGSAGSAAGSGEFMHSKFSHAGRICGAKFKVGEPIYRCKECSFDDTCVLCVNCFNPKDHLGHHVYTTICTEFNNGECDCGDKTAWNHTLFCKAEEG
notes: also called PS1220 (R)
[1]
  binding result: no binding
[2]
  binding result: binds

B2: PS621 (other)
chain: MHSKFSHAGRICGAKFKVGEPIYRCKECSFDDTCVLCVNCFNPKDHTGHHVYTTICTEFNNGICDCGDKEAWNHTLFCKAEEG
notes: Dye-labeled N-terminal arginine recognizer; also called PS621 (R)
[3]
  PW of R-X: 0.47 s
[4]
  PW of R-X: 0.18 s
[5]
  PW of R-X: 0.28 s
[6]
  PW of R-X: < 0.06 s
[7]
  PW of R-X: < 0.06 s
[8]
  PW of R-X: < 0.12 s
[9]
  PW of R-X: < 0.12 s
[10]
  PW of R-X: < 0.06 s
[11]
  PW of R-X: 0.41 s
[12]
  binding result: no binding
[13]
  binding result: no binding
[14]
  RS R-X: 17.3 min
[15]
  RS R-X: 9.6 min
[16]
  RS R-X: 15.4 min
[17]
  RS R-X: 25.5 min

B3: PS1223 (designed binder)
chain: MPTAASATESAIEDTPAPARPEVDGRTKPKRQPRYHVVLWDDDDHTYQYVVVMLRSLFGHPPSRGYRMAKEMDTQGRVIVLTTTREHAELKRDQIHAFGRDRLLARSKGSMKASIEAEEGSAGSAAGSGEFGSAGSAAGSGEFGSAGSAAGSGEFMPTAASATESAIEDTPAPARPEVDGRTKPKRQPRYHVVLWDDDDHTYQYVVVMLRSLFGHPPSRGYRMAKEMDTQGRVIVLTTTREHAELKRDQIHAFGRDRLLARSKGSMKASIEAEE
notes: also called PS1223 (LIV)
[18]
  Pulse Width: 0.92 s
[19]
  Pulse Width: 0.58 s
[20]
  Pulse Width: 0.84 s
[21]
  Pulse Width: 0.42 s
[22]
  binding result: binds
[23]
  binding result: binds
